Source: patent US20080058263A1 (published 2008)

Experiments:
Assay in all cases: receptor-Fc IP
[1] = molecular target: T1, VEGFR-1-Fc (UniProt P17948 27-338)
T1 construct: domain: first three Ig domains; expressed in Drosophila S2 cells, purified on Protein A sepharose; also called VEGFR-1-Fc fusion protein; not shown: Fc fragment from the Signal-pIgPlus vector
Method in brief: (§1)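 Binding of ligand from sample supernatant measured by pentahistidine-antibody immunoprecipitation. IP mix: PBS with 1.5% BSA, 0.06% Tween 20, 3 μg/ml heparin and 400 ng/ml fusion protein, added 1:2 to sample supernatant.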

[2] = molecular target: T2, VEGFR-2-Fc (UniProt P35968 20-322)
T2 construct: domain: first 3 Ig domains; conditioned supernatant of 293T cells; also called VEGFR-2-Fc fusion protein; not shown: Fc fragment of the pIg vector
Method in brief: as §1

[3] = molecular target: T3, VEGFR-3-Fc (UniProt P35916 25-328)
T3 construct: domain: first three Ig domains; conditioned supernatant of 293T cells; also called VEGFR-3-Fc fusion protein; not shown: Fc fragment of the pIg vector
T3 sequence (looked up): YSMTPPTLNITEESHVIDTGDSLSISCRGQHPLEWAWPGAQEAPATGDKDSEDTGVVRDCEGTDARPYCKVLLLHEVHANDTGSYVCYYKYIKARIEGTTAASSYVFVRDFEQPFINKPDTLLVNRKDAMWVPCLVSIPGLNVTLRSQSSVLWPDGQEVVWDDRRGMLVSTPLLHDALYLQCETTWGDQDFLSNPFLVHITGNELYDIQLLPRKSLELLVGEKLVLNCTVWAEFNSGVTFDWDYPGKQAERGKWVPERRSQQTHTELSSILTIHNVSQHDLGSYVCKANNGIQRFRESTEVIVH
Method in brief: as §1

Measured: binding result

T1 sequence (P17948 27-338): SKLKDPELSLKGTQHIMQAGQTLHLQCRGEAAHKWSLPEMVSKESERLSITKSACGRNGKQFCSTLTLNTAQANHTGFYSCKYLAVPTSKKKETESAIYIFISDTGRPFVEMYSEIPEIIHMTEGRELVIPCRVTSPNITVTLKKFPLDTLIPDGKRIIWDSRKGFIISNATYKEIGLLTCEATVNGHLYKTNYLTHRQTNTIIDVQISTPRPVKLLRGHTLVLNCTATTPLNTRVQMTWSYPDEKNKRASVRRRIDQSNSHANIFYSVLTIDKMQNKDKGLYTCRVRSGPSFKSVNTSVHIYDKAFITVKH
T2 sequence (P35968 20-322): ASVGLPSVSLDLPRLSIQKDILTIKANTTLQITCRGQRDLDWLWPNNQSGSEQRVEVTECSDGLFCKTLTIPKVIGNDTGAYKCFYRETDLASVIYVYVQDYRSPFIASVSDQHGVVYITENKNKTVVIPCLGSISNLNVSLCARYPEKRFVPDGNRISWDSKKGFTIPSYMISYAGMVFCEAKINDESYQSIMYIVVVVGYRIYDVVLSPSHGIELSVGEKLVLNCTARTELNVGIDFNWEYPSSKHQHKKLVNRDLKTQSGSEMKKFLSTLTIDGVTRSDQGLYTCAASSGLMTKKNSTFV

B1: 82-1 (ligand)
chain: AHYNTEILKFMDVYQRSYCHPIETLVDIFQEFGVATNTFFKPPCVSVYRCGGCCNDEGLECVPTEESNITMQIMRIKPHQGQHIGEMSFLQHNKCECRPKKD
no binding: all assays above

B2: 82-3 (ligand)
chain: AHYNTEILKFMDVYQRSYCHPIETLVDIFQEFGVATNTFFKPPCVSVYRCGGCCNSEGLQCVPTEESNITMQIMRIKPHQGQHIGEMSFLQHNKCECRPKKD
no binding: all assays above
